According to US20260240959A1, “METHODS FOR IN VIVO EDITING OF KLKB1” (INTELLIA THERAPEUTICS, INC., priority 2022, published 2026):
In the oligonucleotide strings, read from the 5' end, every base follows the letter of its sugar. An asterisk marks phosphorothioate; unmarked linkages are phosphodiester. Other units and linkages are bracketed, terminal groups are in braces. A string of capitals states the bases alone. m = 2'-O-methyl; r = 2'-OH (RNA)

System: plasma kallikrein
Assay: Plasma kallikrein activity in cynomolgus monkeys
Assay type: in vivo, cynomolgus monkey
Settings: n=3
Protocol: Cynomolgus monkeys were treated in cohorts of n=3. This study was conducted with LNP formulations according to Example 1. […]. Animals were dosed at 1.5, 3, or 6 mg per kg doses based on total RNA cargo. Indel formation (percent editing) was measured by NGS. Total kallikrein activity and plasma kallikrein protein level were measured as described above. […]

B1: G013901: cynomolgus specific KLKB1 guide RNA (SEQ ID NO: 409); dosed as LNP formulation with Cas9 mRNA (nucleic acid)
guide: mG*mG*mA*rUrUrArCrArUrArUrGrGrGrArCrArCrArArGrUrUrUrUrArGrAmGmCmUmAmGmAmAmAmUmAmGmCrArArGrUrUrArArArArUrArArGrGrCrUrArGrUrCrCrGrUrUrArUrCrAmAmCmUmUmGmAmAmAmAmAmGmUmGmGmCmAmCmCmGmAmGmUmCmGmGmUmGmCmU*mU*mU*mU
Kallikrein Activity (% of basal activity), Mean (1.5 mpk, Day 14): 31.1 % of basal activity | Kallikrein Activity (% of basal activity), Mean (1.5 mpk, Day 28): 26.8 % of basal activity | Kallikrein Activity (% of basal activity), Mean (1.5 mpk, Day 42): 19.8 % of basal activity | Kallikrein Activity (% of basal activity), Mean (1.5 mpk, Day 56): 8.8 % of basal activity | Kallikrein Activity (% of basal activity), Mean (1.5 mpk, Day 70): 6 % of basal activity | Kallikrein Activity (% of basal activity), Mean (1.5 mpk, Day 84): 10.6 % of basal activity | Kallikrein Activity (% of basal activity), Mean (1.5 mpk, Day 105): 23.3 % of basal activity | Kallikrein Activity (% of basal activity), Mean (1.5 mpk, Day 119): 12.2 % of basal activity | Kallikrein Activity (% of basal activity), Mean (1.5 mpk, Day 147): 11.9 % of basal activity | Kallikrein Activity (% of basal activity), Mean (1.5 mpk, Day 161): 21 % of basal activity | Kallikrein Activity (% of basal activity), Mean (1.5 mpk, Day 180): 19.2 % of basal activity | Kallikrein Activity (% of basal activity), Mean (1.5 mpk, Day 238): 16.6 % of basal activity | Kallikrein Activity (% of basal activity), Mean (1.5 mpk, Day 252): 19.1 % of basal activity | Kallikrein Activity (% of basal activity), Mean (1.5 mpk, Day 266): 13.9 % of basal activity | Kallikrein Activity (% of basal activity), Mean (1.5 mpk, Day 280): 17.5 % of basal activity | Kallikrein Activity (% of basal activity), Mean (1.5 mpk, Day 294): 17 % of basal activity | Kallikrein Activity (% of basal activity), Mean (1.5 mpk, Day 308): 18.2 % of basal activity | Kallikrein Activity (% of basal activity), Mean (1.5 mpk, Day 326): 13.3 % of basal activity | Kallikrein Activity (% of basal activity), Mean (1.5 mpk, Day 333): 15.9 % of basal activity | Kallikrein Activity (% of basal activity), Mean (1.5 mpk, Day 347): 16.9 % of basal activity | Kallikrein Activity (% of basal activity), Mean (1.5 mpk, Day 365): 24.1 % of basal activity | Kallikrein Activity (% of basal activity), Mean (3 mpk, Day 7): 42.8 % of basal activity | Kallikrein Activity (% of basal activity), Mean (3 mpk, Day 14): 15.9 % of basal activity | Kallikrein Activity (% of basal activity), Mean (3 mpk, Day 28): 10.6 % of basal activity | Kallikrein Activity (% of basal activity), Mean (3 mpk, Day 42): 8.6 % of basal activity | Kallikrein Activity (% of basal activity), Mean (3 mpk, Day 56): 3.4 % of basal activity | Kallikrein Activity (% of basal activity), Mean (3 mpk, Day 70): 3 % of basal activity | Kallikrein Activity (% of basal activity), Mean (3 mpk, Day 84): 4.2 % of basal activity | Kallikrein Activity (% of basal activity), Mean (3 mpk, Day 105): 6 % of basal activity | Kallikrein Activity (% of basal activity), Mean (3 mpk, Day 119): 3.4 % of basal activity | Kallikrein Activity (% of basal activity), Mean (3 mpk, Day 147): 4.5 % of basal activity | Kallikrein Activity (% of basal activity), Mean (3 mpk, Day 161): 6 % of basal activity | Kallikrein Activity (% of basal activity), Mean (3 mpk, Day 180): 4.7 % of basal activity | Kallikrein Activity (% of basal activity), Mean (3 mpk, Day 238): 4.7 % of basal activity | Kallikrein Activity (% of basal activity), Mean (3 mpk, Day 252): 8.2 % of basal activity | Kallikrein Activity (% of basal activity), Mean (3 mpk, Day 266): 8.9 % of basal activity | Kallikrein Activity (% of basal activity), Mean (3 mpk, Day 280): 6.8 % of basal activity | Kallikrein Activity (% of basal activity), Mean (3 mpk, Day 294): 7.9 % of basal activity | Kallikrein Activity (% of basal activity), Mean (3 mpk, Day 308): 7.4 % of basal activity | Kallikrein Activity (% of basal activity), Mean (3 mpk, Day 326): 5.5 % of basal activity | Kallikrein Activity (% of basal activity), Mean (3 mpk, Day 333): 6.8 % of basal activity | Kallikrein Activity (% of basal activity), Mean (3 mpk, Day 347): 4.1 % of basal activity | Kallikrein Activity (% of basal activity), Mean (3 mpk, Day 365): 10 % of basal activity | Kallikrein Activity (% of basal activity), Mean (6 mpk, Day 7): 18.2 % of basal activity | Kallikrein Activity (% of basal activity), Mean (6 mpk, Day 14): 5.3 % of basal activity | Kallikrein Activity (% of basal activity), Mean (6 mpk, Day 28): 3.9 % of basal activity | Kallikrein Activity (% of basal activity), Mean (6 mpk, Day 42): 3.6 % of basal activity | Kallikrein Activity (% of basal activity), Mean (6 mpk, Day 56): 4.2 % of basal activity | Kallikrein Activity (% of basal activity), Mean (6 mpk, Day 70): 3.9 % of basal activity | Kallikrein Activity (% of basal activity), Mean (6 mpk, Day 84): 4.7 % of basal activity | Kallikrein Activity (% of basal activity), Mean (6 mpk, Day 105): 4.7 % of basal activity | Kallikrein Activity (% of basal activity), Mean (6 mpk, Day 119): 3 % of basal activity | Kallikrein Activity (% of basal activity), Mean (6 mpk, Day 147): 3 % of basal activity | Kallikrein Activity (% of basal activity), Mean (6 mpk, Day 161): 5.6 % of basal activity | Kallikrein Activity (% of basal activity), Mean (6 mpk, Day 180): 5 % of basal activity | Kallikrein Activity (% of basal activity), Mean (6 mpk, Day 238): 3.2 % of basal activity | Kallikrein Activity (% of basal activity), Mean (6 mpk, Day 252): 3.1 % of basal activity | Kallikrein Activity (% of basal activity), Mean (6 mpk, Day 266): 2.7 % of basal activity | Kallikrein Activity (% of basal activity), Mean (6 mpk, Day 280): 3 % of basal activity | Kallikrein Activity (% of basal activity), Mean (6 mpk, Day 294): 2.9 % of basal activity | Kallikrein Activity (% of basal activity), Mean (6 mpk, Day 308): 3 % of basal activity | Kallikrein Activity (% of basal activity), Mean (6 mpk, Day 326): 3.5 % of basal activity | Kallikrein Activity (% of basal activity), Mean (6 mpk, Day 333): 3.3 % of basal activity | Kallikrein Activity (% of basal activity), Mean (6 mpk, Day 347): 2.9 % of basal activity | Kallikrein Activity (% of basal activity), Mean (6 mpk, Day 365): 3.4 % of basal activity
